# Reference: patent publication US20150344570A1 (published 2015)
# B1: GpH7-A5/GpH7-B3 variant A327_05P/GpL16-k0 (antibody, human IgG1, kappa)
# heavy 1: not shown
# heavy 2: not shown
# light: DIVMTQSPLSLPVTPGEPASISCQASESLVHSNRNTYLHWYLQKPGQSPQLLIYKVSNRFSGVPDRFSGSGSGTDFTLKISRVEAEDVGVYYCSQNTHVPPTFGQGTKVEIERTVAAPSVFIFPPSDEQLKSGTASVVCLLNNFYPREAKVQWKVDNALQSGNSQESVTEQDSKDSTYSLSSTLTLSKADYEKHKVYACEVTHQGLSSPVTKSFNRGEC
# notes: He Ab: mutation in one H chain only; also called He Ab
# B2: GpH7-A5/GpH7-B3 variant A327_06M/GpL16-k0 (antibody, human IgG1, kappa)
# heavy 1: not shown
# heavy 2: not shown
# light: B1 light
# notes: as for B1
# B3: GpH7-A5/GpH7-B3 variant A327_08L/GpL16-k0 (antibody, human IgG1, kappa)
# heavy 1: not shown
# heavy 2: not shown
# light: B1 light
# notes: as for B1
# B4: GpH7-A5/GpH7-B3 variant A327_11K/GpL16-k0 (antibody, human IgG1, kappa)
# heavy 1: not shown
# heavy 2: not shown
# light: B1 light
# notes: as for B1
# B5: GpH7-A5/GpH7-B3 variant A327_13S/GpL16-k0 (antibody, human IgG1, kappa)
# heavy 1: not shown
# heavy 2: not shown
# light: B1 light
# notes: as for B1
# B6: GpH7-A5/GpH7-B3 variant A327_15Y/GpL16-k0 (antibody, human IgG1, kappa)
# heavy 1: not shown
# heavy 2: not shown
# light: B1 light
# notes: as for B1
# B7: GpH7-A5/GpH7-B3 variant I336_04F/GpL16-k0 (antibody, human IgG1, kappa)
# heavy 1: not shown
# heavy 2: not shown
# light: B1 light
# notes: as for B1
# B8: GpH7-A5/GpH7-B3 variant I336_09D/GpL16-k0 (antibody, human IgG1, kappa)
# heavy 1: not shown
# heavy 2: not shown
# light: B1 light
# notes: as for B1
# B9: GpH7-A5/GpH7-B3 variant I336_10E/GpL16-k0 (antibody, human IgG1, kappa)
# heavy 1: not shown
# heavy 2: not shown
# light: B1 light
# notes: as for B1
# B10: GpH7-A5/GpH7-B3 variant I336_11K/GpL16-k0 (antibody, human IgG1, kappa)
# heavy 1: not shown
# heavy 2: not shown
# light: B1 light
# notes: as for B1
# B11: GpH7-A5/GpH7-B3 variant I336_12R/GpL16-k0 (antibody, human IgG1, kappa)
# heavy 1: not shown
# heavy 2: not shown
# light: B1 light
# notes: as for B1
# B12: GpH7-A5/GpH7-B3 variant I336_13S/GpL16-k0 (antibody, human IgG1, kappa)
# heavy 1: not shown
# heavy 2: not shown
# light: B1 light
# notes: as for B1
# B13: GpH7-A5/GpH7-B3 variant I336_14T/GpL16-k0 (antibody, human IgG1, kappa)
# heavy 1: not shown
# heavy 2: not shown
# light: B1 light
# notes: as for B1
# B14: GpH7-A5/GpH7-B3 variant I336_15Y/GpL16-k0 (antibody, human IgG1, kappa)
# heavy 1: not shown
# heavy 2: not shown
# light: B1 light
# notes: as for B1
# B15: GpH7-A5/GpH7-B3 variant I336_16H/GpL16-k0 (antibody, human IgG1, kappa)
# heavy 1: not shown
# heavy 2: not shown
# light: B1 light
# notes: as for B1
# B16: GpH7-A5/GpH7-B3 variant I336_18N/GpL16-k0 (antibody, human IgG1, kappa)
# heavy 1: not shown
# heavy 2: not shown
# light: B1 light
# notes: as for B1
# B17: GpH7-A5/GpH7-B3 variant I336_19Q/GpL16-k0 (antibody, human IgG1, kappa)
# heavy 1: not shown
# heavy 2: not shown
# light: B1 light
# notes: as for B1
# B18: GpH7-A5/GpH7-B3 variant N325_02A/GpL16-k0 (antibody, human IgG1, kappa)
# heavy 1: not shown
# heavy 2: not shown
# light: B1 light
# notes: as for B1
# B19: GpH7-A5/GpH7-B3 variant N325_05P/GpL16-k0 (antibody, human IgG1, kappa)
# heavy 1: not shown
# heavy 2: not shown
# light: B1 light
# notes: as for B1
# B20: GpH7-A5/GpH7-B3 variant N325_11K/GpL16-k0 (antibody, human IgG1, kappa)
# heavy 1: not shown
# heavy 2: not shown
# light: B1 light
# notes: as for B1
# B21: GpH7-A5/GpH7-B3 variant N325_12R/GpL16-k0 (antibody, human IgG1, kappa)
# heavy 1: not shown
# heavy 2: not shown
# light: B1 light
# notes: as for B1
# B22: GpH7-A5/GpH7-B3 variant N325_16H/GpL16-k0 (antibody, human IgG1, kappa)
# heavy 1: not shown
# heavy 2: not shown
# light: B1 light
# notes: as for B1
# Target: T1, FcγRIIb (human, UniProt P31994 43-217)
# T1 construct: extracellular domain; Soluble extracellular domain with C-terminal His tag, used as analyte; also called FcgRIIb; CD32B; not shown: His tag at the C terminus
# T1 sequence (looked up): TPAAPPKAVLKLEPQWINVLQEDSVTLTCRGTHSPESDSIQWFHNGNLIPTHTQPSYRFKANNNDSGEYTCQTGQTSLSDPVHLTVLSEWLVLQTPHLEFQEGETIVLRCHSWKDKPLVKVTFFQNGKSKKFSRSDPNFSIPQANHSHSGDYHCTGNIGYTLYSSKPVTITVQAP
# Assay: SPR (Biacore), captured antibody, FcγR as analyte, relative binding
# Description: (§1) The heterodimerized antibodies He Abs in which one of the H chains was introduced with an alteration were assayed for their binding activities to each activating FcγR and inhibitory FcγR according to the method described in Example 4. […] The activating FcγRs in FIGS. 26, 27, 28, and 29 are FcγRIa, FcγRIIa (R), FcγRIIa (H), and FcγRIIIa, respectively.
# (§2) Analysis of interaction between objective antibody and the FcγR was carried out using Biacore T100 (GE Healthcare). HBS-EP+ (GE Healthcare) was used as the running buffer, and the measurement temperature was set to 25° C. Chips produced by immobilizing the antigen peptide by the amine coupling method to a Series S Sencor Chip CM5 (GE Healthcare), or alternatively, chips produced by allowing preliminarily biotinylated antigen peptides to interact with and immobilize onto a Series S Sensor Chip SA (certified) (GE Healthcare) were used. Antibodies of interest were captured onto an antigen peptide-immobilized chip, and allowed to interact to each FcγR diluted with running buffer. To regenerate and repeatedly use the chip, the antibodies captured on the chip were washed off by reacting 10 mM glycine-HCl, pH 1.5.
row,Binder,He/Con_2b
1,B1,69.3 % of GpH7-A5/GpH7-B3/GpL16-k0
2,B2,59.5 % of GpH7-A5/GpH7-B3/GpL16-k0
3,B3,63.1 % of GpH7-A5/GpH7-B3/GpL16-k0
4,B4,12.5 % of GpH7-A5/GpH7-B3/GpL16-k0
5,B5,79.5 % of GpH7-A5/GpH7-B3/GpL16-k0
6,B6,60.8 % of GpH7-A5/GpH7-B3/GpL16-k0
7,B7,91.2 % of GpH7-A5/GpH7-B3/GpL16-k0
8,B8,92.1 % of GpH7-A5/GpH7-B3/GpL16-k0
9,B9,89.8 % of GpH7-A5/GpH7-B3/GpL16-k0
10,B10,90.3 % of GpH7-A5/GpH7-B3/GpL16-k0
11,B11,92.1 % of GpH7-A5/GpH7-B3/GpL16-k0
12,B12,83.7 % of GpH7-A5/GpH7-B3/GpL16-k0
13,B13,89.5 % of GpH7-A5/GpH7-B3/GpL16-k0
14,B14,68.2 % of GpH7-A5/GpH7-B3/GpL16-k0
15,B15,85.8 % of GpH7-A5/GpH7-B3/GpL16-k0
16,B16,97.6 % of GpH7-A5/GpH7-B3/GpL16-k0
17,B17,58.2 % of GpH7-A5/GpH7-B3/GpL16-k0
18,B18,64.4 % of GpH7-A5/GpH7-B3/GpL16-k0
19,B19,26 % of GpH7-A5/GpH7-B3/GpL16-k0
20,B20,10.4 % of GpH7-A5/GpH7-B3/GpL16-k0
21,B21,19.1 % of GpH7-A5/GpH7-B3/GpL16-k0
22,B22,70.1 % of GpH7-A5/GpH7-B3/GpL16-k0

# Target: T2, FcγRIa (human, UniProt P12314 16-292)
# T2 construct: extracellular domain; Soluble extracellular domain with C-terminal His tag, used as analyte; also called FcgRI; CD64; not shown: His tag at the C terminus
# T2 sequence (P12314 16-292): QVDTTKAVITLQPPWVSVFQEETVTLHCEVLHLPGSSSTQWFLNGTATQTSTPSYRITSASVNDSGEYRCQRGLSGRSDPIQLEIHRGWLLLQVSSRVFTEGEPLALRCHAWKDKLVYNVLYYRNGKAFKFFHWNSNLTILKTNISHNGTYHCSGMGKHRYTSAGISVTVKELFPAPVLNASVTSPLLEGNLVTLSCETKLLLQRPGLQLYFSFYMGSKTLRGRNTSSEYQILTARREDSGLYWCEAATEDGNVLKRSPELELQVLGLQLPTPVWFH
# Assay: as above
# Description: as §1, §2
row,Binder,He/Con_1a
1,B1,99.3 % of GpH7-A5/GpH7-B3/GpL16-k0
2,B2,103 % of GpH7-A5/GpH7-B3/GpL16-k0
3,B3,98.6 % of GpH7-A5/GpH7-B3/GpL16-k0
4,B4,86.1 % of GpH7-A5/GpH7-B3/GpL16-k0
5,B5,102 % of GpH7-A5/GpH7-B3/GpL16-k0
6,B6,96.3 % of GpH7-A5/GpH7-B3/GpL16-k0
7,B7,106 % of GpH7-A5/GpH7-B3/GpL16-k0
8,B8,104 % of GpH7-A5/GpH7-B3/GpL16-k0
9,B9,108 % of GpH7-A5/GpH7-B3/GpL16-k0
10,B10,105 % of GpH7-A5/GpH7-B3/GpL16-k0
11,B11,102 % of GpH7-A5/GpH7-B3/GpL16-k0
12,B12,102 % of GpH7-A5/GpH7-B3/GpL16-k0
13,B13,104 % of GpH7-A5/GpH7-B3/GpL16-k0
14,B14,103 % of GpH7-A5/GpH7-B3/GpL16-k0
15,B15,101 % of GpH7-A5/GpH7-B3/GpL16-k0
16,B16,108 % of GpH7-A5/GpH7-B3/GpL16-k0
17,B17,104 % of GpH7-A5/GpH7-B3/GpL16-k0
18,B18,96.8 % of GpH7-A5/GpH7-B3/GpL16-k0
19,B19,88.8 % of GpH7-A5/GpH7-B3/GpL16-k0
20,B20,80.9 % of GpH7-A5/GpH7-B3/GpL16-k0
21,B21,84.2 % of GpH7-A5/GpH7-B3/GpL16-k0
22,B22,95.1 % of GpH7-A5/GpH7-B3/GpL16-k0
